Experimental data reported in the supplement of paper PMC12764529.
± gives the half width of the 95% confidence interval.

Legend:
[1] = folding stability dG unfold (combined trypsin and chymotrypsin); higher = more stable
In short: (§1)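 Bayesian fitting of sequencing counts gave K50 for each design. Unfolding free energy followed by setting this against a sequence-predicted unfolded-state K50 and a shared folded-state K50, either per protease or with trypsin and chymotrypsin combined. The designs, under 80 residues and lacking cysteine, were digested in a PA-tagged cDNA display format at 11 threefold-diluted protease concentrations and without protease, and only those with AlphaFold2 dimer inter-PAE above 15 were kept.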

[2] = folding stability dG unfold from trypsin proteolysis; higher = more stable
In short: as §1

[3] = folding stability dG unfold from chymotrypsin proteolysis; higher = more stable
In short: as §1

Sequence | folding stability dG unfold [1] [kcal/mol] | folding stability dG unfold [2] [kcal/mol] | folding stability dG unfold [3] [kcal/mol]
SAGGSKKVKIKITKIEIFPNGTIKVTVKNEDGSEVTITITKNKDGKYKIKIKNKKTKKIFEFEIPLSAGGSA [r2_361_TrROS_Hall] | 2.8 ± 0.22 | 2.22 ± 0.089 | 3.1 ± 0.06
SAGGSAGGSSGMVKAEFGLVAPDGTPVSTRTLTFSSEEEIEEALAALPEFSLALVPDVKRGPLSAGGSAGGS [r12_182_JUSTAS] | 0.51 ± 0.14 | -0.586 ± 0.38 | 0.86 ± 0.13
SAGGSMIEVERDPNDPNRYRARLPVIEENPPEPKLVYVDVYVDPENGLVYARAVTEDGGEAEFRFESAGGSA [r2_428_TrMRF] | 0.786 ± 0.17 | 0.448 ± 0.12 | 1.03 ± 0.16
SAGGDALKGLPPGAKVKVERVNGKLVVVVEKVEVKPPPKVTLTLPPGWKLTRLELTEDGTLKAELEPSAGGS [r16_103_TrROS_Hall] | 1.79 ± 0.23 | 1.4 ± 0.053 | 2.13 ± 0.068
SAGGSAGGSFEILEVHPVKDGWLMIVVRTPGKMKVITIPPDDLDEIPGLDDIAIFPVKDGEPISAGGSAGGS [r12_343_TrROS] | 1.38 ± 0.21 | 1.28 ± 0.049 | 1.65 ± 0.12
SAATSSTSISIPASTTSLEDVRATLAALGYPPERIVALEVVKVEPGSTKITVTLERPDGTRRTVTVTSASAG [r14_30_JUSTAS] | 2.76 ± 0.058 | 3.14 ± 0.054 | 2.388 ± 0.011
SAGGSAGGSAGMEYSIDKASGKILIKIPDEDKTWILYDPKTGEKYIFKQIGGKWYKVEKVSAGGSAGGSAGG [r11_1036_TrMRF] | 1.91 ± 0.26 | 1.57 ± 0.058 | 1.87 ± 0.14
SAGGGLTEEQLEEEAREVAERVEKEFAEATGIEPVEILSVEVFPDGTVRITLRFKGKGGLVTYTIPLSAGGS [r16_622_TrMRF] | 3.42 ± 0.12 | 3.16 ± 0.096 | 3.58 ± 0.04
SAGGSAGGSANGFVFKIKEVFEVDGKLFLKVTGTDKEYIIPDNAIIEPLEDDSVKVIILPPESAGGSAGGSA [r18_468_TrMRF] | 1.31 ± 0.061 | 1.19 ± 0.021 | 1.35 ± 0.086
SAGGSAGGSAGGMVVRITTKDGRTITFPPGTSLEELRSLPADEITRVEVVEVEPVRVVEPSAGGSAGGSAGG [r7_190_TrROS_Hall] | 1.75 ± 0.082 | 1.45 ± 0.028 | 1.97 ± 0.051
SAGGSAGGSAGGSMIVLRMSADEIKKLLPPGAKIKKIEYDEETDEVYVIIEFDKDGKIISAGGSAGGSAGGS [r4_435_TrROS_Hall] | 1.49 ± 0.069 | 1.53 ± 0.028 | 1.32 ± 0.092
SAGGSAFPTIAESPGVVKIEPLPDGTIKITFNTSEEAKEKIIEELKKLGNFNVEEDPEKPVLIVKKSAGGSA [r15_554_JUSTAS] | 2.6 ± 0.098 | 1.7 ± 0.087 | 2.95 ± 0.059
SAGGSAGMPSVTPVTVQMKGSREEAEAVAEELIEELRAKDPSVKVEAVEFSELPDGTYRVTITVTNSAGGSA [r15_718_JUSTAS] | 3.49 ± 0.054 | 3.71 ± 0.12 | 3.36 ± 0.057
SAGGDPSATPVVVEFTLPDGARAVATTFPSGVVVARVFNPVTGRTTEVTVTVVPESATATVTVRPNPDSAGG [r13_822_TrMRF] | 1.02 ± 0.053 | 0.762 ± 0.027 | 1.13 ± 0.067
SAGGAVEKNSNNPNTSPEKAKEIAEEIAEELKKEGHVPKSISFSEKENGKLTATIKIEDGKELTIGLSAGGS [r8_485_JUSTAS] | < -1 | -0.343 ± 0.16 | -0.467 ± 0.17
SAGGSGIEAAILEAVEKGLNPVELTFRLPEDGKLVVLKVEVLDVLDGGAIVKVEMEVYDPENPKKISAGGSA [r2_420_TrMRF] | 1.83 ± 0.1 | 1.06 ± 0.089 | 2.14 ± 0.063

Sequence | folding stability dG unfold [1] [kcal/mol] | folding stability dG unfold [2] [kcal/mol] | folding stability dG unfold [3] [kcal/mol]
SAGGSAGGSAGGMVIVKVHLPNGNTLTFVFPGMTLDEIREELASQGGKIKEIEIVPMENSAGGSAGGSAGGS [r10_572_TrROS] | 2.28 ± 0.079 | 2.17 ± 0.07 | 2.323 ± 0.02
SAGGSAMVRIEVELENGEKLEIEIEVPEEMTEEELLEKAKELAKELAEKLGIPEAKVKVVKIEVVPSAGGSA [r15_463_TrROS_Hall] | 3.92 ± 0.23 | 4.06 ± 0.16 | 2.92 ± 0.22
SAGGSAGGSAGGSVSELPPISTKTTTTVTTTSDGTKVVYTTTTYSDGTTTTTSGPVPAASAGGSAGGSAGGS [r10_682_JUSTAS] | 1.09 ± 0.13 | 0.565 ± 0.049 | 1.14 ± 0.067
SAGMLSVEQLLEALKEGKEILIVAESPEERERAKRLLAEELGLSEEEIDALLKKAKIKVLPADDPELKKSAG [r5_368_TrROS_Hall] | 2.46 ± 0.2 | 1.35 ± 0.086 | 2.72 ± 0.16
SAGGKTIPIWFRVPPGMTPEEAADELADEIANELQQQNGKEIEIKIDDVEPNPNGWNIVRIKIEVDPSAGGS [r8_156_TrROS] | 0.26 ± 0.32 | 0.176 ± 0.3 | 0.433 ± 0.43
SAGGSAGGSAGPIIPPNFEVVDVFETETSYYILVKNPETGRYYVARYDPLTGKIEVFEVSSAGGSAGGSAGG [r11_896_TrMRF] | 4.52 ± 0.1 | 3.46 ± 0.1 | 4.75 ± 0.065
SAGGMADEELANMSLEEVIAAVKEAGAKTVTVTFPDGSTLTIDLGDDGVVTVTLTTPPGEKETFEIPSAGGS [r8_51_TrMRF] | 2.59 ± 0.11 | 2.34 ± 0.17 | 2.73 ± 0.088
NKAQKLARSLARKFMRPHGYPMEIDPENNSIRFPNGEPIMEIPIDIVLLDDDGKIVEEINIPIRIRMRPPKS [r1_318_TrROS] | 0.762 ± 0.23 | 0.695 ± 0.16 | 0.782 ± 0.27
SAGGMKIYYISKGKKYYVKVILPNNEIIEIETESLEEAIKKAKEELIKKYPNIPPENFKIDYIIPLPESAGG [r13_887_TrMRF] | 4.18 ± 0.2 | 3.81 ± 0.2 | 4.34 ± 0.078
SAGGEEVILTLPDGSPVRVIPDEGTASFELPGYRVETEVLPDGRIRLTVRDPAAGALVRELDLGLLRSAGGS [r16_760_JUSTAS] | 0.623 ± 0.039 | 0.158 ± 0.039 | 0.789 ± 0.068
SAGGSAGGSMTVTYTEVGDQLVVTTPDGRRYVITLSGDVTYDPATGTVTVPPGETMTPVPVPASAGGSAGGS [r20_158_JUSTAS] | 1.99 ± 0.039 | 1.61 ± 0.021 | 2.13 ± 0.025
SKEVKITIEVKEVNGKLYVVVKVEVNGKEETLVFKSLEEAKNAIAKKLGLPKEKIKIKKVEVYKVSKKDLSA [r9_909_TrROS_Hall] | 1.07 ± 0.24 | 0.964 ± 0.16 | 0.869 ± 0.21
SAGTELELEAEAEVLFPELGTRARVRVRARVRPTEDEVEVELEVEAEFEPLPLVPPIVSPEENPELAEGSAG [r14_435_TrMRF] | 3.08 ± 0.17 | 3.19 ± 0.12 | 2.7 ± 0.14
SAGDGDKMRGEHEREDPNGKKREVTHEMKVQPPPVPKPKIELPADDIDEIDPDNGTLRNPGNGKPFPIGSAG [r5_807_TrROS] | -0.31 ± 0.41 | 0.0244 ± 0.15 | -0.465 ± 0.17
SAGGSAGGSAGGKVTIEFPTSRVELYPLPGPFVLAEVSFPNRKLLALAHPDGDEILILPISAGGSAGGSAGG [r7_683_TrMRF] | 1.07 ± 0.042 | 0.929 ± 0.028 | 1.05 ± 0.082
